Results as given in PMC11289891, “Selection and characterization of a peptide-based complement modulator targeting C1 of the innate immune system†” (RSC Chemical Biology, 2024).
Positions of bridges follow the written chain, without caps; N, C: chain ends.

Molecular target: T1, C1q (full-length; ligand binding and scaffolding part of the C1 complex) (human (endogenous in human serum), UniProt P02745 23-245; P02746 28-253; P02747 29-245)
T1 construct: complement C1q subunit A, human; complement C1q subunit B, human; complement C1q subunit C, human; In serum and in the bought C1 protein C1q stands in the C1 complex with the proteases C1r and C1s (C1r2s2); in the ELISAs it was detected with anti-C1q; also called gC1q (globular head domain of full-length C1q); source: endogenous, normal human serum (Complement Technology); purified C1 protein …
T1 sequence (P02745 23-245, chain 1 of 3): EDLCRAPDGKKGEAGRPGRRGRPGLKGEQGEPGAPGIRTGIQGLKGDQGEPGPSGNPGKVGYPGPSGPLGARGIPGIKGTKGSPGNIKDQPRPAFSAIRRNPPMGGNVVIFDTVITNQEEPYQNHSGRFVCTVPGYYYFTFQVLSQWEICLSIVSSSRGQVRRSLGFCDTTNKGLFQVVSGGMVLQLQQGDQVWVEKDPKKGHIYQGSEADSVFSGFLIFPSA
T1 sequence (P02746 28-253, chain 2 of 3): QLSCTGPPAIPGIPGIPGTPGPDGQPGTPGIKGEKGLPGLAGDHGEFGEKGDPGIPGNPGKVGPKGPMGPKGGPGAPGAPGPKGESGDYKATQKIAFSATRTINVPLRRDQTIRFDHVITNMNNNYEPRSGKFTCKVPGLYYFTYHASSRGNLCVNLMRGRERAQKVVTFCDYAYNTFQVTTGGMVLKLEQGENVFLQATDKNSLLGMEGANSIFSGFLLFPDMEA
T1 sequence (P02747 29-245, chain 3 of 3): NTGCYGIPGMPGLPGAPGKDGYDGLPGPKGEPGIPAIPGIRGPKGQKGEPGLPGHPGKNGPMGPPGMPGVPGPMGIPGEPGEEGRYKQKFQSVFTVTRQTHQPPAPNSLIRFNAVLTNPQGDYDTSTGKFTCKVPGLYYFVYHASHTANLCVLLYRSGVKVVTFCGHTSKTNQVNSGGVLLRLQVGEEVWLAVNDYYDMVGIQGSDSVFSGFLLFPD
Experiment: ELISA; titration of purified cL3-Bt bound to streptavidin-coated plates, 1% normal human serum in RPMI, 37 °C 1 hour, C1q detected with rabbit anti-C1q
Conditions: one partner purified

EC50: ~6 µM
Binder: {CH2CO}-YTVTFYPDPFTLQFIACGS-{K(biotin)} (thioether N-17) [cyclic-L3, biotinylated (cL3-Bt)]
